Patent publication US11547674B2, “Protein-polymer hybrid biomaterials” (The Regents of the University of California, priority 2018, dated 2023)

Columns and labels:
[1] = LDH enzyme kinetics (NADH generation, absorbance at 340 nm); type: biochemical, Bacillus stearothermophilus
Procedure: Enzyme kinetics was measured by absorbance increase at 340 nm in the generation of NADH. All assays were done at 25° C. and in 100 mM triethanolamine hydrochloride buffer following the protocols of Clarke et al. (Clarke, A. R., Wilks, H. M., Barstow, D. A., Atkinson, T., Chia, W. N. & Holbrook, J. J. An Investigation of the Contribution Made by the Carboxylate Group of an Active Site Histidine-Aspartate Couple to Binding and Catalysis in Lactate Dehydrogenase. Biochemistry 27, 1617-1622 (1988)]. Enzyme concentration of 100 nM were mixed with 10 mM NAD+ and 20 mM FBP with varying lactate concentrations for the assay. Km and Kcat were determined using GraphPad Michaelis-Menten curve fit.
Protocols for determining Kcat and Km of LDH were based on previous studies by Clarke et al.^48 Enzyme kinetics were measured by absorbance increases at 340 nm in the generation of NADH. All assays were done at 25° C. and in 100 mM triethanolamine hydrochloride buffer. Enzyme at 100 nM was mixed with 10 mM NAD^+ and 20 mM FBP with varying lactate concentrations. The initial slope of the absorbance vs. time was obtained for a range of lactate concentrations. This initial slope vs. concentration of lactate was plotted in GraphPad Prism and kinetic parameters (Km and kcat) were determined using a non-linear curve fit to the Michaelis-Menten equation.

[2] = Circular dichroism thermostability scan of LDH; type: physicochemical; conditions: ˜60° C.
Procedure: The tertiary structure and thermostability of WT and mutant LDH were obtained following the protocol of Molino et al. Jasco 810 spectropolarimeter equipped with Jasco Peltier temperature controller (Jasco, Easton, Md.) were used to measure the far-UV circular dichroism (CD). LDH samples were prepared at a concentration of 0.06 mg/ml in 50 mM potassium phosphate and 100 mM NaCl. Samples were scanned between 200-260 nm at 25 C at scanning speed of 10 nm/min in 0.1 pathlength quartz cells. Thermal unfolding was monitored at ellipticity at 217 nm from 60° C. to 90° C. at a heating rate of 1° C./min.

[3] = 25° C., 100 nM enzyme, 10 mM NAD+, 20 mM FBP, varying lactate

B1: Wt-LDH: thermostable recombinant wild-type lactate dehydrogenase, amino acid sequence from Bacillus stearothermophilus (protein, UniProt P00344 1-317, looked up)
L-lactate dehydrogenase: MKNNGGARVVVIGAGFVGASYVFALMNQGIADEIVLIDANESKAIGDAMDFNHGKVFAPKPVDIWHGDYDDCRDADLVVICAGANQKPGETRLDLVDKNIAIFRSIVESVMASGFQGLFLVATNPVDILTYATWKFSGLPHERVIGSGTILDTARFRFLLGEYFSVAPQNVHAYIIGEHGDTELPVWSQAYIGVMPIRKLVESKGEEAQKDLERIFVNVRDAAYQIIEKKGATYYGIAMGLARVTRAILHNENAILTVSAYLDGLYGERDVYIGVPAVINRNGIREVIEIELNDDEKNRFHHSAATLKSVLARAFTR
- catalytic activity of LDH [1]: catalytic
- Kcat [1, 3]: 8.8 s⁻¹
- Km [1, 3]: 38.5 mM
- denaturation at the NP reaction temperature [2]: does not denature
